Data published in patent US20120027773A1 (AVEO PHARMACEUTICALS, published 2012).
Each block holds one binder with its values, some of them ahead of it.

What was measured:
[1] = target: T1, human wild-type RON (cell surface) (human, UniProt Q04912 25-1400); experiment: FACS, 10 ug/ml antibody, PC3 cells, 4 C
T1 construct: whole, on cells; also called Human RON; wt RON
Experimental: (§1) Binding to cell surface wild-type RON and delta 160 RON at 4° C. was determined for antibodies 07F01, 12B11, 17F06, 18H09, and 29B06, using FACS. Cells expressing wild-type RON (PC3), and cells expressing delta 160 RON (HT-29), were harvested using cell dissociation buffer (Invitrogen), washed twice with FACS buffer (0.5% BSA PBS) and treated with CytoQ Antibody diluent and FC receptor block (Innovex). Purified antibodies were diluted at a concentration of 10 μg/ml, in FACS buffer. Cells were incubated with 100 μl of antibody mix for one hour, washed with FACS buffer three times, and incubated for 45 minutes with goat anti-mouse PE conjugated antibody (Jackson Immunoresearch Laboratories). Cells were washed three times with FACS buffer, resuspended in 300 μl of FACS buffer and analyzed using a Beckman Coulter Cytomics FC 500 FACS instrument.

[2] = target: T2, recombinant human RON SEMA and PSI domains (human, UniProt Q04912 25-571); experiment: ECL competition assay: antibody titrated on plate-coated hRON SEMA+PSI; blocked ligand MSP, detected with biotinylated anti-MSP antibody
T2 construct: domain: SEMA+PSI; Commercial protein (R&D Systems); also called rhRON SEMA+PSI; hRON SEMA+PSI
Experimental: (§2) The biochemical neutralization assay measures inhibition of MSP binding to hRON by antibodies in hybridoma supernatants, using electrochemiluminescence (ECL). MA2400 96-well high binding plates (Meso Scale Discovery) were coated with 25 μl of 0.42 μg/mL hRON SEMA+PSI (an N-terminal portion of the ECD of hRON; R&D Systems) in PBS for one hour at room temperature with agitation. The plates were washed four times with PBS+0.1% Tween-20 (PBST), and blocked with 150 μl of charcoal-stripped fetal bovine serum (FBS) (Gibco). The hybridoma supernatant were added and incubated for 45 minutes at room temperature. After incubation, 5 μl of MSP (3 μg/mL) in charcoal stripped FBS was added to each well, and incubated for 45 minutes. The plate was washed four times with PBST, and 25 μl of 1 μg/mL biotinylated anti-MSP antibody (R&D Systems) was added to the plates for one hour at room temperature with agitation. The plates were washed four times with PBST, and incubated with 25 μl of 1 μg/mL ST-streptavidin (Meso Scale Discovery) for one hour at room temperature with agitation. The plates were washed four times with PBST, and 150 μl read buffer (Meso Scale Discovery) was added to each well before the plates were analyzed on a Sector Imager 2400 (Meso Scale Discovery) instrument. Antibodies 07F01, 18H09 and 29B06 each blocked MSP binding to hRON SEMA+PSI in this neutralization assay.
(§3) Antibodies 07F01, 12B11, 17F06, 18H09, and 29B06 were tested for inhibition of MSP binding to hRON SEMA+PSI, as measured by electrochemiluminescence (ECL) assay as described in Example 3. The antibodies (concentration range: 0.006-10 μg/mL) were incubated for 45 minutes at room temperature.

[3] = target: T2, recombinant human RON SEMA and PSI …; experiment: SPR, Ab captured on anti-mouse IgG, 37 C, AVG
Experimental: (§4) The binding affinities and kinetics of binding of antibodies 07F01, 29B06, 17F06, 18H09, and 12B11 to recombinant human RON-ECD/mFc fusion protein (rhRON ECD/mFc) and recombinant human RON SEMA and PSI domains (rhRON SEMA+PSI) (R&D Systems, Inc., Minneapolis, Minn.) were measured by surface plasmon resonance, using a Biacore T100 instrument (GE Healthcare, Piscataway, N.J.).
(§5) Rabbit anti-mouse IgGs (GE Healthcare) were immobilized on carboxymethylated dextran CM4 sensor chips (GE Healthcare) by amine coupling, according to a standard protocol. Analyses were performed at 25° C. and 37° C., using PBS containing 0.05% surfactant P20 as running buffer. The antibodies were captured in individual flow cells at a flow rate of 10 μl/min. Injection time was varied for each antibody to yield an Rmax between 30 and 60 RU. 250 μg/mL mouse Fc were injected at 30 μl/min for 120 seconds to block non-specific binding of antibodies to Fc portion of the protein when needed. Buffer, rhRon ECD/mFc or rhRON SEMA+PSI diluted in running buffer was injected sequentially over a reference surface (no antibody captured) and the active surface (antibody to be tested) for 300 seconds at 60 μl/minute. The dissociation phase was monitored for up to 3600 seconds. The surface was then regenerated with two 60-second injections of 10 mM Glycine-HCl, pH 1.7, at a flow rate of 60 μl/min. The rhRON ECD/mFc or rhRON SEMA+PSI concentration range tested was 0.625 nM to 20 nM.

[4] = target: T1, human wild-type RON (cell surface); experiment: cell-based or functional assay
[5] = target: T1, human wild-type RON (cell surface); experiment: cell-based or functional assay; remark: listed apart in the source
[6] = target: T3, recombinant human RON-ECD/mFc fusion protein (human, UniProt Q04912 25-957); experiment: SPR, Ab captured on anti-mouse IgG, 25 C, AVG
T3 construct: extracellular domain; also called rhRON ECD/mFc; rhRon ECD/mFc; not shown: THXmFC: Thrombin/His tag/Factor Xa-AJ mouse IgG-Fc
Experimental: as §4, §5
(§6) Kinetic parameters were determined using the kinetic function of the BIAevaluation software (GE Healthcare) with double reference subtraction. Kinetic parameters for each antibody, kₐ (association rate constant), kd (dissociation rate constant) and KD (equilibrium dissociation constant) were determined.

[7] = target: T2, recombinant human RON SEMA and PSI …; experiment: ECL competition, MSP binding to coated hRON SEMA+PSI; competitor MSP; average
Experimental: as §2, §3

[8] = target: T2, recombinant human RON SEMA and PSI …; experiment: ECL competition, MSP binding to coated hRON SEMA+PSI; competitor MSP; average n=3
Experimental: as §2, §3

[9] = target: T4, delta 160 RON variant (cell surface) (human, UniProt Q04912 25-1400); experiment: FACS, 10 ug/ml antibody, HT-29 cells, 4 C
T4 construct: whole, on cells; Splice variant; also called delta 160 variant
Experimental: as §1

[10] = target: T3, recombinant human RON-ECD/mFc fusion …; experiment: SPR, Ab captured on anti-mouse IgG, 37 C, n=1
Experimental: as §4, §5, §6

[11] = target: T2, recombinant human RON SEMA and PSI …; experiment: SPR, Ab captured on anti-mouse IgG, 25 C, AVG
Experimental: as §4, §5

[12] = target: T3, recombinant human RON-ECD/mFc fusion …; experiment: SPR, Ab captured on anti-mouse IgG, 25 C, AVG; * Outside instrument limit of detection; 25 C, AVG of n=3
Experimental: as §4
(§7) Rabbit anti-mouse IgGs (GE Healthcare) were immobilized on carboxymethylated dextran CM4 sensor chips (GE Healthcare) by amine coupling, according to a standard protocol. Analyses were performed at 25° C. and 37° C., using PBS containing 0.05% surfactant P20 as running buffer. The antibodies were captured in individual flow cells at a flow rate of 10 μl/min. Injection time was varied for each antibody to yield an Rmax between 30 and 60 RU. 250 μg/mL mouse Fc were injected at 30 μl/min for 120 seconds to block non-specific binding of antibodies to Fc portion of the protein when needed. […] The dissociation phase was monitored for up to 3600 seconds. […]
as §6

[13] = target: T3, recombinant human RON-ECD/mFc fusion …; experiment: SPR, Ab captured on anti-mouse IgG, 25 C, AVG; * Outside instrument limit of detection
Experimental: as §4, §7, §6

[14] = target: T3, recombinant human RON-ECD/mFc fusion …; experiment: SPR, Ab captured on anti-mouse IgG, 37 C, AVG
Experimental: as §4, §5, §6

[15] = target: T2, recombinant human RON SEMA and PSI …; experiment: SPR, Ab captured on anti-human IgG Fc, 37 C; 37 C, n=1
[16] = target: T2, recombinant human RON SEMA and PSI …; experiment: SPR, Ab captured on anti-human IgG Fc, 37 C
[17] = target: T2, recombinant human RON SEMA and PSI …; experiment: SPR, Ab captured on anti-human IgG Fc, 25 C

PC3 % cell surface binding [1]: 99% | IC50 (read off the curve) [2]: ~700 pM | Kd [3]: 220 pM | koff [3]: 0.00012 s⁻¹ | kon [3]: 580000 M⁻¹ s⁻¹ | Percent Inhibition of MSP-induced HPAF-II cell migration, antibody 2 ug/ml [4]: 107% | Mean IC50 (nM), inhibition of MSP-dependent ERK phosphorylation, T47D cells [5]: 0.71 nM | Kd [6]: 220 pM | koff [6]: 5.7e-05 s⁻¹ | kon [6]: 330000 M⁻¹ s⁻¹ | Maximum Neutralization (%) [7]: 86.9% | IC50 [8]: 910 pM | HT-29 % cell surface binding [9]: 98.3% | Kd [10]: 400 pM | koff [10]: 0.0007 s⁻¹ | kon [10]: 1.8e+06 M⁻¹ s⁻¹ | Kd [11]: 8.6 pM | koff [11]: 3.8e-06 s⁻¹ | kon [11]: 440000 M⁻¹ s⁻¹
B1: 18H09 (antibody, mouse IgG1, V domains shown)
VH: EVQLQESGPSLVKPSQTLSLTCYVTGDSITSDYWNWIRKFPGNKLEYMGYISYSGSTYYNPSLKSRISITRDTSKNQFYLRLNSVTTEDTATYYCARTHILTIAYWGQGTLVTVSA
VL: QAVVTQESALTTSPGETVTLTCRSSAGAVTTSNFANWVQEKPDHLFTGLIGDTNIRAPGVPARFSGSLIGDKAALTITGAQTEDEAIYFCALWYSNHYWVFGGGTKLTVLG
notes: Murine hybridoma monoclonal, IgG1/lambda (IGLC1); also called antibody 18H09

koff [12]: < 1e-05 s⁻¹ | PC3 % cell surface binding [1]: 99.1% | Kd [13]: < 58.8 pM | Kd [3]: 130 pM | koff [3]: 2.1e-05 s⁻¹ | kon [3]: 260000 M⁻¹ s⁻¹ | Percent Inhibition of MSP-induced HPAF-II cell migration, antibody 2 ug/ml [4]: 70.7% | Mean IC50 (nM), inhibition of MSP-dependent ERK phosphorylation, T47D cells [5]: 0.96 nM | kon [6]: 170000 M⁻¹ s⁻¹ | Kd [14]: 210 pM | koff [14]: 2.4e-05 s⁻¹ | kon [14]: 140000 M⁻¹ s⁻¹ | Maximum Neutralization (%) [7]: 7.9% | HT-29 % cell surface binding [9]: 99% | Kd [11]: 9 pM | koff [11]: 1.4e-06 s⁻¹ | kon [11]: 190000 M⁻¹ s⁻¹
B2: 17F06 (antibody, mouse IgG2a, V domains shown)
VH: EVKLVESGGGLVKPGASLKLSCAASGFIFSSYGMSWVRQTSDKRLEWVASISSGGGTTYYLDTVKGRFTISRENAKDTLYLQMSGLKSEDTALYYCTRGQWLLKFAYWGQGTLVTVSA
VL: QLVLTQSSSASFSLGASAKLTCTLSSQHTTYTIEWYQQLPLKPPKYVMELKKDGSHSTGVGIPDRFSGSSSGADRYLTISNIQPEDEAIYICGVGETIEDQFVYVFGGGTKVTVLG
notes: Murine hybridoma monoclonal, IgG2a/lambda (IGLC2); also called antibody 17F06

kon [15]: 1.9e+08 M⁻¹ s⁻¹ | Kd [16]: 1000 pM | koff [16]: 0.19 s⁻¹ | Kd [17]: 1100 pM | koff [17]: 0.0026 s⁻¹ | kon [17]: 2.3e+06 M⁻¹ s⁻¹
B3: RON6 (antibody, V domains shown)
VH: QVQLVQSGPEVKKSGSSVKVSCKASGGTFSSDAITWVRQAPGQGLEWMGGIIPILGMANYAQKFQGRVTITADKSTNTAYMELSSLRSEDTAVYFCARVADYYGLGTYYWYFDLWGRGTLVTVSS
VL: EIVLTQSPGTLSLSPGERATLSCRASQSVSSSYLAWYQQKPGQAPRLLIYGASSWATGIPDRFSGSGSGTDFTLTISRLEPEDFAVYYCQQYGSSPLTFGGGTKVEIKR
